Measurements as given in the supplement of paper PMC9170038.

Tested on: MS2 coat protein
Assay: apparent KD of MS2 coat protein; designed switch direction (-1 OFF switch, 1 ON switch): -1; higher = weaker reporter binding
Summary of the method: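 Designed RNA switches with common flanks were made on Illumina chips by stalled E. coli RNA polymerase. Titration with SNAP-549-labelled MS2 coat protein doubled from 0.7 or 1.5 nM up to 3 µM. Apparent KD is each design's median over clusters after curve-fitting normalised fluorescence.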

[1] = input ligand: microRNA oligo, concentration not stated
[2] = Eterna round: R95, input ligand: microRNA oligo, concentration not stated
[3] = Eterna round: R95, input ligand: FMN 200 uM
[4] = Eterna round: R95, input ligand: none

Sequence	apparent KD of MS2 coat protein (input ligand: FMN 200 uM)	apparent KD of MS2 coat protein (input ligand: none)	apparent KD of MS2 coat protein [2]	other results
AAGAACGUCGGAGGAUAUCCAGCCAAGCCCGCAGGAGAAGGCCGGCGGUGGGAUGUGCUUCACAUGAGGAUCACCCAUGUUAAU [Onriti] (Eterna round: R96, puzzle: Exclusion NG 1)	0.361 µM	0.0962 µM		apparent KD of MS2 coat protein [1]: 0.0646 µM
CUAUUACGAGGAUAUGAUUUAAAUAACAUGAGGAUCACCCAUGUUUUUACGUUAUUUUGUUUAGAAGGCGUAUUGU [JR_E5_Sub027] (puzzle: Exclusion 5)			0.0555 µM	
AAACCUGAAGUUAGGAUAUGAAGUAUCACUAUACUUCAGAAGGAACUUGAGGAUCACCCAAGUAGCCGUGAGGC [jl-bmx4.4.66 ViennaUCT mod] (Eterna round: R97, puzzle: Brourd's mod of Exclusion 4)	0.11 µM	0.023 µM		
GUCAGCUCGUCAGGAUAUACAUGAUAGAUCGAUUAAUUAAUUAAUUUAACAUGAGGAUCACCCAUGUAGAAGGGACGAGCUGAC [ENG2/1-B1] (Eterna round: R96, puzzle: Exclusion NG 2)				apparent KD of MS2 coat protein [1]: 0.0398 µM
GUAAGUUCAGGAUAUGAUGAAUUAAACAUGAGGAUCACCCAUGUAGAUCCUGAAUUAACAUCAGAAGGGAAUAUUU [JL-ex5-4.53 Brourd mod] (Eterna round: R97, puzzle: Exclusion 5)	0.0222 µM	0.0155 µM		
AAUAACAGAGGAUAUACUAUUUUAUGUAUUUAUUAUUUUAAACAUGAGGAUCACCCAUGUAGAAGGCUGAUUGA [JMF 70] (puzzle: Exclusion 2)			0.0285 µM	
GAUUAACAUGAGGAUCACCCAUGUGAGGAUAUUGACUUGCUCACUUUCCCAUUAGAGUCGAGAAGGCGCAUCUU [1986#18] (Eterna round: R97, puzzle: Exclusion 1)	0.0252 µM	0.0286 µM		
AUAAUUUAAGUGAGGAUAUACCUAUGGAAACAUAGGUAGAAGGCACAUGAGGAUCACCCAUGUUCCUAUACAUA [Fiskers BMX 4 - 3] (puzzle: Brourd's mod of Exclusion 4)			0.012 µM	apparent KD of MS2 coat protein [3]: 0.0228 µM; apparent KD of MS2 coat protein [4]: 0.0131 µM
AAUUUGCAAGCGAGAUCCCACAUGAGGAUCACCCAUGUGCUCGUCUUAUAAGGUACUGUGACGAGAGUCACGGUACC [Mat - Sensor, turn-off var - Eli Mod - D91] (Eterna round: R97, puzzle: Sensor, turn-off variant 1)	0.0156 µM	0.0121 µM		
CUCUUGUUAGGAUAUCAAACCGGCGGCGGAGCCGCCGGUAGUGAGAAGGGACAUGAGGAUCACCCAUGUAAGAA [Isarcedi] (puzzle: Exclusion 4)			0.0652 µM	
CGCAUGUGAGGAUAUUAGUAGUAGUCAGAAUAGACUAUUACUGAGAAGGUACAUGAGGAUCACCCAUGUAUGCG [Eli x4 4.22] (Eterna round: R97, puzzle: Exclusion 4)	0.0389 µM	0.0215 µM		
AGCACGACUGCAGGAUAUUCCGCAGUUGAUGCGGGAGAAGGGCAGGGCAGCACUUGAGGAUCACCCAAGUGACCGUGUUGCCAA [Mutated MS2 EX1.7] (Eterna round: R96, puzzle: Exclusion NG 1)	0.0358 µM	0.0251 µM		apparent KD of MS2 coat protein [1]: 0.0172 µM
AUGAGGUUAGGAUAUACAUGAGGAUCACCCAUGUUGAAAGGUUAGAUAGGCGAAGAUGGUAGAAGGAACAAAGA [JR_Exclu3_Sub054] (puzzle: Exclusion 3)			0.0382 µM	apparent KD of MS2 coat protein [3]: 0.0294 µM; apparent KD of MS2 coat protein [4]: 0.0439 µM
CUUUAGUGAGGAUAUUAGUAGUAAUACAAUAGUAUUACUACUGAGAAGGCACAUGAGGAUCACCCAUGUUCCUC [Mat - Exclusion 4 - Mod of Omei - D79] (puzzle: Exclusion 4)			0.028 µM	
GUGGUGGGUUUUCCGAGUGACAUGAGGAUCACCCAUGUGUUAGUUUGAGGUAUCAAGCGAAUGGCUCGUCUUAUGUG [JR_SV3TOV1_Sub046] (Eterna round: R96, puzzle: Sensor v3, turn-off variant 1)	0.982 µM	0.623 µM		apparent KD of MS2 coat protein [1]: 0.0447 µM
